Laboratory results reported in patent US20220177594A1.
Changes are numbered by the printed parent chain.

Assays:
[1] = target: Feline_OSMR_hlgG1_Fc (feline); assay: SPR Biacore
[2] = target: Feline_OSMR_hlgG1_Fc (feline); assay: indirect ELISA, fOSMR coated; OD ratio to antibody expression control
[3] = target: Canine_OSMR_hlgG1_Fc (canine); assay: SPR Biacore
Chain of Canine_OSMR_hlgG1_Fc (canine) (chain, as listed by the source limits assumed, form in doubt): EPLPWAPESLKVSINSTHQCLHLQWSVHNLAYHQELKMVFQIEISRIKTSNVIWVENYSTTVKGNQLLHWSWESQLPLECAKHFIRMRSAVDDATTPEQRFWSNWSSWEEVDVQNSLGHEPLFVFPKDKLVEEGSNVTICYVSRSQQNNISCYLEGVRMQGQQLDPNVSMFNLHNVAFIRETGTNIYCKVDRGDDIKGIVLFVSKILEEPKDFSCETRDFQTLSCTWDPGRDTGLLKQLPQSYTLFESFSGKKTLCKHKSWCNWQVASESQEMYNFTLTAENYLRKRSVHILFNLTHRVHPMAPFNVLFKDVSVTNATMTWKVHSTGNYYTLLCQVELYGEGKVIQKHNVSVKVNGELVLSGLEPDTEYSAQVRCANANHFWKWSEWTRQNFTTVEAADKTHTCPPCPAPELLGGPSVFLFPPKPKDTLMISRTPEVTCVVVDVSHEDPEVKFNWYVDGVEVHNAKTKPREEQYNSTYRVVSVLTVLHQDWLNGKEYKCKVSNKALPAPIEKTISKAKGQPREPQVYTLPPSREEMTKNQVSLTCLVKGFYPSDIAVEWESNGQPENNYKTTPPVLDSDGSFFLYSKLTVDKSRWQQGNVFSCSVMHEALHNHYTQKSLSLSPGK

Chain of Feline_OSMR_hlgG1_Fc (feline) (chain, as listed by the source limits assumed, form in doubt): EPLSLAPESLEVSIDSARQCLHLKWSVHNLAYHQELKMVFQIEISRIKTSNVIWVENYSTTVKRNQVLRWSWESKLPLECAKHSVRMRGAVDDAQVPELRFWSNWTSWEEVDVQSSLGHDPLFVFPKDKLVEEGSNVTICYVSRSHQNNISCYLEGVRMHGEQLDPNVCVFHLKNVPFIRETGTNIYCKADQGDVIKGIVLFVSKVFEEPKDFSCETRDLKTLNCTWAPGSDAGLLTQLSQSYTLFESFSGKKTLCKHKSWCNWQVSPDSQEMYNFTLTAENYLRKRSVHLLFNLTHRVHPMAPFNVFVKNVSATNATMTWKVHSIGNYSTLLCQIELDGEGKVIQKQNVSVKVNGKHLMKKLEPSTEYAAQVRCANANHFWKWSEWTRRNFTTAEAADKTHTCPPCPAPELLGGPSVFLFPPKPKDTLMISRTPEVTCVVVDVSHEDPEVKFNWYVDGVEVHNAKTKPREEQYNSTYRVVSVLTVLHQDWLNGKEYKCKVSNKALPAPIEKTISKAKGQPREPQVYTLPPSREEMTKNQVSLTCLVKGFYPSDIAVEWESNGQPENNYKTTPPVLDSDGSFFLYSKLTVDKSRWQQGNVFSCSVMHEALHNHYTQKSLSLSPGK

B1: Mu_09E09_VH (SEQ ID NO: 35)_S35A (antibody, V domains shown)
VH: DVKLVESGEGLVKPGGSLKLSCAASGFTFSSYAMAWVRQTPEKRLEWVAYISSGGDYIYYADTVKGRFTISRDNARNTLYLQMSSLKSEDTAMYYCTRDPITGTFAYWGQGTLVTVSA
VL: DLQMTQTTSSLSASLGDRVTISCRASQDINNYLNWYQQKPDGTVKLLIYYTSTLHSGVPSRFSGSGSGTDYSLTISNLEQEDIATYFCQQGNTLPWTFGGGTKLEIKR
- Kd [1]: 1.37 nM
- koff [1]: 0.00104 s⁻¹
- kon [1]: 756000 M⁻¹ s⁻¹
- ELISA ratio [2]: 1.05 OD ratio

B2: Mu_09E09_VH (SEQ ID NO: 35)_D99A (antibody, V domains shown)
VH: B1 VH with A35S, D99A
VL: B1 VL
- Kd [1]: 1.76 nM
- koff [1]: 0.00108 s⁻¹
- kon [1]: 612000 M⁻¹ s⁻¹
- ELISA ratio [2]: 0.908 OD ratio

B3: Mu_09E09_VH (SEQ ID NO: 35)_T102A (antibody, V domains shown)
VH: B1 VH with A35S, T102A
VL: B1 VL
- Kd [1]: 1.94 nM
- koff [1]: 0.00187 s⁻¹
- kon [1]: 964000 M⁻¹ s⁻¹
- ELISA ratio [2]: 0.388 OD ratio

B4: Mu_09E09_VL (SEQ ID NO: 37)_N92A (antibody, V domains shown)
VH: B1 VH with A35S
VL: B1 VL with N92A
- ELISA ratio [2]: 0.015 OD ratio

B5: Mu_09E09_VH (SEQ ID NO: 35)_Y57A (antibody, V domains shown)
VH: B1 VH with A35S, Y57A
VL: B1 VL
- Kd [1]: 2.54 nM
- koff [1]: 0.0024 s⁻¹
- kon [1]: 943000 M⁻¹ s⁻¹
- ELISA ratio [2]: 0.052 OD ratio

B6: Mu_09E09_VH (SEQ ID NO: 35)_I101A (antibody, V domains shown)
VH: B1 VH with A35S, I101A
VL: B1 VL
- ELISA ratio [2]: 0 OD ratio

B7: Mu_09E09_VL (SEQ ID NO: 37)_W96A (antibody, V domains shown)
VH: B1 VH with A35S
VL: B1 VL with W96A
- ELISA ratio [2]: 0 OD ratio

B8: Mu_09E09_VL (SEQ ID NO: 37)_Q90A (antibody, V domains shown)
VH: B1 VH with A35S
VL: B1 VL with Q90A
- ELISA ratio [2]: 0.183 OD ratio

B9: Mu_09E09_VH (SEQ ID NO: 35)_P100A (antibody, V domains shown)
VH: B1 VH with A35S, P100A
VL: B1 VL
- Kd [1]: 1.27 nM
- koff [1]: 0.000926 s⁻¹
- kon [1]: 729000 M⁻¹ s⁻¹
- ELISA ratio [2]: 0.946 OD ratio

B10: Mu_09E09_VH (SEQ ID NO: 35)_Y59A (antibody, V domains shown)
VH: B1 VH with A35S, Y59A
VL: B1 VL
- ELISA ratio [2]: 0.011 OD ratio

B11: Mu_09E09_VH (SEQ ID NO: 35)_F105A (antibody, V domains shown)
VH: B1 VH with A35S, F105A
VL: B1 VL
- Kd [1]: 2.4 nM
- koff [1]: 0.00186 s⁻¹
- kon [1]: 772000 M⁻¹ s⁻¹
- ELISA ratio [2]: 0.256 OD ratio

B12: Mu_09E09_VL (SEQ ID NO: 37)_Y50A (antibody, V domains shown)
VH: B1 VH with A35S
VL: B1 VL with Y50A
- ELISA ratio [2]: 0 OD ratio

B13: Mu_09E09_VH (SEQ ID NO: 35)_Y50A (antibody, V domains shown)
VH: B1 VH with A35S, Y50A
VL: B1 VL
- Kd [1]: 2.85 nM
- koff [1]: 0.00177 s⁻¹
- kon [1]: 622000 M⁻¹ s⁻¹
- ELISA ratio [2]: 0.31 OD ratio

B14: Mu_19F07_VH (SEQ ID NO: 47)_S56A (antibody, V domains shown)
VH: EVKLVESEGGLVQPGSSMKLSCTASGFTFSDYYMAWVRQVPEKGLEWVANINYDGASTYYLDSLKSRFIISRDNAKNILYLQMSSLKSEDTATYYCARGLTWDFDVWGTGTTVTVSS
VL: DIVMTQSHKFMSPSVGDRVSITCKASQDVDTAVAWYQQKPGQSPKLLIYLASTRHTGVPDRFTGSGSGTDFTLTISNVQSEDLADYFCQQYSRFPLTFGAGTKLELKR
- ELISA ratio [2]: 0.277 OD ratio

B15: Mu_19F07_VH (SEQ ID NO: 47)_W102A (antibody, V domains shown)
VH: B14 VH with A56S, W102A
VL: B14 VL
- ELISA ratio [2]: 0.057 OD ratio

B16: Mu_19F07_VH (SEQ ID NO: 47)_Y60A (antibody, V domains shown)
VH: B14 VH with A56S, Y60A
VL: B14 VL
- ELISA ratio [2]: 0.479 OD ratio

B17: Mu_02D09_VH (SEQ ID NO: 31)_G33A (antibody, V domains shown)
VH: EVQLVESGGGLVKPGGSLTLSCAASGFTFSDYAMHWLRQAPEKGLEWVAYISSGSRAVFFADTVKGRFTISRDNAKNTLFLQMTSLRSDDTAMYYCARDRYDGRGFAYWGQGTLVTVSA
VL: DIVLTQSPATLSVTPGDSVSLSCRASQSISNNLHWYQQTSHESPRLLITYASQSISGIPSRFSGSGSGTDFTLSINSVETEDFGMYFCQQSNSWPLTFGAGTKLELKR
- Kd [1]: 6.13 nM
- koff [1]: 0.0014 s⁻¹
- kon [1]: 229000 M⁻¹ s⁻¹
- ELISA ratio [2]: 0.158 OD ratio

B18: Mu_02D09_VH (SEQ ID NO: 31)_D62A (antibody, V domains shown)
VH: B17 VH with A33G, D62A
VL: B17 VL
- Kd [1]: 0.00211 nM
- koff [1]: 2.31e-07 s⁻¹
- kon [1]: 109000 M⁻¹ s⁻¹
- ELISA ratio [2]: 0.01 OD ratio

B19: Mu_02D09_VH (SEQ ID NO: 31)_Y50A (antibody, V domains shown)
VH: B17 VH with A33G, Y50A
VL: B17 VL
- Kd [1]: 0.00119 nM
- koff [1]: 1.2e-07 s⁻¹
- kon [1]: 100000 M⁻¹ s⁻¹
- ELISA ratio [2]: 0.009 OD ratio

B20: Mu_02D09_VL (SEQ ID NO: 33)_W94A (antibody, V domains shown)
VH: B17 VH with A33G
VL: B17 VL with W94A
- Kd [1]: 0.000765 nM
- koff [1]: 7.94e-08 s⁻¹
- kon [1]: 104000 M⁻¹ s⁻¹
- ELISA ratio [2]: 0 OD ratio

B21: Mu_02D09_VH (SEQ ID NO: 31)_R104A (antibody, V domains shown)
VH: B17 VH with A33G, R104A
VL: B17 VL
- Kd [1]: 0.449 nM
- koff [1]: 5.79e-05 s⁻¹
- kon [1]: 129000 M⁻¹ s⁻¹
- ELISA ratio [2]: 0 OD ratio

B22: Mu_02D09_VH (SEQ ID NO: 31)_H35A (antibody, V domains shown)
VH: B17 VH with A33G, H35A
VL: B17 VL
- Kd [1]: 8.05 nM
- koff [1]: 0.00108 s⁻¹
- kon [1]: 134000 M⁻¹ s⁻¹
- ELISA ratio [2]: 0.03 OD ratio

B23: Mu_02D09_VH (SEQ ID NO: 31)_D102A (antibody, V domains shown)
VH: B17 VH with A33G, D102A
VL: B17 VL
- Kd [1]: 13.9 nM
- koff [1]: 0.00174 s⁻¹
- kon [1]: 125000 M⁻¹ s⁻¹
- ELISA ratio [2]: 0.058 OD ratio

B24: Mu_02D09_VH (SEQ ID NO: 31)_S52A (antibody, V domains shown)
VH: B17 VH with A33G, S52A
VL: B17 VL
- Kd [1]: 0.736 nM
- koff [1]: 0.000483 s⁻¹
- kon [1]: 656000 M⁻¹ s⁻¹
- ELISA ratio [2]: 0.001 OD ratio

B25: Mu_02D09_VH (SEQ ID NO: 31)_Y101A (antibody, V domains shown)
VH: B17 VH with A33G, Y101A
VL: B17 VL
- Kd [1]: 11.5 nM
- koff [1]: 0.00194 s⁻¹
- kon [1]: 169000 M⁻¹ s⁻¹
- ELISA ratio [2]: 0.32 OD ratio

B26: Mu_02D09_VL (SEQ ID NO: 33)_I29A (antibody, V domains shown)
VH: B17 VH with A33G
VL: B17 VL with I29A
- Kd [1]: 7.26 nM
- koff [1]: 0.00113 s⁻¹
- kon [1]: 155000 M⁻¹ s⁻¹
- ELISA ratio [2]: 0.377 OD ratio

B27: Mu_02D09_VH (SEQ ID NO: 31)_D99A (antibody, V domains shown)
VH: B17 VH with A33G, D99A
VL: B17 VL
- Kd [1]: 1.13 nM
- koff [1]: 0.000463 s⁻¹
- kon [1]: 408000 M⁻¹ s⁻¹
- ELISA ratio [2]: 0 OD ratio

B28: Mu_02D09_VL (SEQ ID NO: 33)_L96A (antibody, V domains shown)
VH: B17 VH with A33G
VL: B17 VL with L96A
- Kd [1]: 0.000648 nM
- koff [1]: 2.85e-07 s⁻¹
- kon [1]: 440000 M⁻¹ s⁻¹
- ELISA ratio [2]: 1.27 OD ratio

B29: FEL_10F07_1.2 (antibody)
heavy: DVQLVESGGDLVKPGGSLRLTCVASGFTYSSYAMSWVRQAPGKGLQWVAYISSGGDYFYYADTVKGRFTISRDNAKNTLYLQMNSLKTEDTATYYCVRDPITGTFAYWGQGTLVTVSSASTTAPSVFPLAPSCGTTSGATVALACLVLGYFPEPVTVSWNSGALTSGVHTFPAVLQASGLYSLSSMVTVPSSRWLSDTFTCNVAHPPSNTKVDKTVRKTDHPPGPKPCDCPKCPPPEAAGAPSIFIFPPKPKDTLSISRTPEVTCLVVDLGPDDSDVQITWFVDNTQVYTAKTSPREEQFNSTYRVVSVLPILHQDWLKGKEFKCKVNSKSLPSPIERTISKAKGQPHEPQVYVLPPAQEELSRNKVSVTCLIKSFHPPDIAVEWEITGQPEPENNYRTTPPQLDSDGTYFVYSKLSVDRSHWQRGNTYTCSVSHEALHSHHTQKSLTQSPGK
light: DITMTQSPGSLAGSPGQQVTMNCRASQDITNYLNWYQQKPGQHPKLLIYYTSTLHSGVPDRFSGSGSGTDFTLTISNLQAEDVASYYCQQGHMLPWTFGQGTRSDAQPSVFLFQPSLDELHTGSASIVCILNDFYPKEVNVKWKVDGVVQNKGIQESTTEQNSKDSTYSLSSTLTMSSTEYQSHEKFSCEVTHKSLASTLVKSFQRSECQRE
- Kd [3]: 13.3 nM
- koff [3]: 0.000885 s⁻¹
- kon [3]: 66500 M⁻¹ s⁻¹
- Kd [1]: 4.75 nM
- koff [1]: 0.00061 s⁻¹
- kon [1]: 128000 M⁻¹ s⁻¹

B30: FEL_10F07_2.1 (antibody)
heavy: B29 heavy with Y29F, N74D, N84S, V97T, R98G
light: EIQMTQSPSSLSASPGDRVTITCRASQDITNYLNWYQQKPGKVPKLLIYYTSTLHSGVPSRFSGSGSGTDFTLTISSLEPEDAATYYCQQGHMLPWTFGQGTRSDAQPSVFLFQPSLDELHTGSASIVCILNDFYPKEVNVKWKVDGVVQNKGIQESTTEQNSKDSTYSLSSTLTMSSTEYQSHEKFSCEVTHKSLASTLVKSFQRSECQRE
- Kd [3]: 10 nM
- koff [3]: 0.000851 s⁻¹
- kon [3]: 85000 M⁻¹ s⁻¹
- Kd [1]: 2.2 nM
- koff [1]: 0.00042 s⁻¹
- kon [1]: 191000 M⁻¹ s⁻¹
